Measurements as given in patent publication US20230212239A1, “INHIBITORS OF CBL AUTOINHIBITION AND RELATED METHODS” (THE HOSPITAL FOR SICK CHILDREN, priority 2020, published 2023).
Entries after “also recorded” stand apart in the source; their conditions may differ.

T1: phosphorylated CBL (pCBL) (Homo sapiens, UniProt P22681)
T1 construct: GST (N, cleaved yes); made in house
T1 sequence (P22681 2-436): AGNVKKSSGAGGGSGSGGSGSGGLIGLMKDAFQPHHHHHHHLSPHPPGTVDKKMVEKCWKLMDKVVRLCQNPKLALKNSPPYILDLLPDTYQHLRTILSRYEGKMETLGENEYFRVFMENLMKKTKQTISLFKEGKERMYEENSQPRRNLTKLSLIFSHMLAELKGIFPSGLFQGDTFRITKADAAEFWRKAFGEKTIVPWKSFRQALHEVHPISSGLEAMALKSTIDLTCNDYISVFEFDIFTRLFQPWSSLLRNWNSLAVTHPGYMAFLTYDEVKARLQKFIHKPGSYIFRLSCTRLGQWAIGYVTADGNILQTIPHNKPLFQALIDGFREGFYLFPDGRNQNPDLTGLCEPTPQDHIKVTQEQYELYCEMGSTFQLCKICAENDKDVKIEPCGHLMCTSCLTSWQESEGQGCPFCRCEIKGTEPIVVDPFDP

T2: CBL TKBD-LHR-RING (Homo sapiens, UniProt P22681)
T2 construct: GST (N, cleaved yes); made in house; host or cells: E. coli BL-21
T2 sequence (P22681 2-436): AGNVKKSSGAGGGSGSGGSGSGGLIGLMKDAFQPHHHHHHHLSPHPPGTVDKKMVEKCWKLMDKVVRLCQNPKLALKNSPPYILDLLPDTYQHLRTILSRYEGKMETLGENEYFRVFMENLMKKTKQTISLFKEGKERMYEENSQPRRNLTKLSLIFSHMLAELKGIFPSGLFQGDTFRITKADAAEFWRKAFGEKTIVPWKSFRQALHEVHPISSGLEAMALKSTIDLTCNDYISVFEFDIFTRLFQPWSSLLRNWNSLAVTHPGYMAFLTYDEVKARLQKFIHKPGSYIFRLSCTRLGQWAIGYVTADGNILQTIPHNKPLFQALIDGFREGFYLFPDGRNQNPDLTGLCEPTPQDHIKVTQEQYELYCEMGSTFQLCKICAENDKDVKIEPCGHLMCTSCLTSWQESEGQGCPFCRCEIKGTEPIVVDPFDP

T3: CBL G306E (Homo sapiens, UniProt P22681, G306E)
T3 construct: Residues 25-357 and 2-436 of CBL were cloned in frame into pGEX4T-1; GST (N, cleaved yes); made in house; host or cells: E. coli BL-21
T3 sequence (P22681 2-436 G306E): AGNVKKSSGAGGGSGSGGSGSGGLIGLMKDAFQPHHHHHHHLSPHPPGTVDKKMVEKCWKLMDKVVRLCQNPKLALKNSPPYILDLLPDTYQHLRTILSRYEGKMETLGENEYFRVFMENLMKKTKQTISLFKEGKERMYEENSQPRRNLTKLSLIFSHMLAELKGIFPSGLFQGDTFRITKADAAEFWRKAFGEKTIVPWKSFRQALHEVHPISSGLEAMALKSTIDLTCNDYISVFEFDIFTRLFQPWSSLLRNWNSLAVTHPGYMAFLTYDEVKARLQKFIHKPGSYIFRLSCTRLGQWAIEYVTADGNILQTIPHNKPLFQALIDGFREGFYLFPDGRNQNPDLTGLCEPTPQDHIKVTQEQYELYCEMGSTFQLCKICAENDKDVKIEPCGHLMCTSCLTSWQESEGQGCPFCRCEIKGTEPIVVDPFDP


Key:
Format in all cases: biochemical
[1] = target: T1, phosphorylated CBL (pCBL); assay: In vitro ubiquitination assay, anti-ubiquitin immunoblot, phosphorylated CBL; settings: added to phosphorylated CBL
Text: (§1) Given that binding of SLAP2 and the LHR-RING would be mutually exclusive (FIG. 8C), we reasoned that binding of SLAP2 to CBL could displace the LHR-RING, thereby promoting the catalytically competent conformation. To test this hypothesis, an in vitro ubiquitination assay in which E3 ligase activity is detected by a smear at high molecular weight on an anti-ubiquitin (Ub) immunoblot was employed. […] To further compare and quantify CBL ubiquitin ligase activity, a chemiluminescence based assay which measures the total amount of polyubiquitylated products formed in an in vitro reaction was used. In this assay, production of polyubiquitylated proteins increased upon addition of SLAP2 or pSLAP2 to CBL, compared to CBL alone (FIG. 9C and FIG. 10A).
(§2) In vitro ubiquitination reactions were prepared with 20 pmol of CBL or pCBL and 60 pmol of hSLAP2 or phosphorylated hSLAP2 (pSLAP2) for both WT and mutants. Reagents were thawed and reactions prepared on ice. […]

CBL TKBD-LHR-RING = target: T2, CBL TKBD-LHR-RING; assay: Chemiluminescence based E3LITE assay of total polyubiquitylated products; settings: added to CBL, compared to CBL alone
Text: as §1
(§3) Ubiquitination reactions were set up as above (25 µL total volume) in triplicate and diluted with reaction buffer after completion (1:40 for pCBL, 1:15 for all other reactions). […] Wells were washed four times with PBS-T and 25 µL of prepared Immobilon Western Chemiluminescent HRP Substrate (Millipore #P90719) added to each well immediately prior to the plate being read on a Synergy Neo2 Plate Reader (BioTek Instruments). […] Standard deviation of the reaction averages was calculated and used as a measure of error. Each reaction set was analyzed at least twice with fresh protein purifications.

CBL G306E = target: T3, CBL G306E; assay: In vitro ubiquitination assays with CBL mutant G306E; settings: CBL mutant that abolishes phospho-tyrosine binding
Protocol: Thus, we tested whether the ability of SLAP2 to promote CBL ubiquitination activity is influenced by canonical TKBD-phospho-tyrosine interactions.
as §2, §3

Row | Molecule | ubiquitination activity of active pCBL [1] | production of polyubiquitylated proteins / CBL ligase activity (CBL TKBD-LHR-RING) | CBL G306E ubiquitination activity (CBL G306E)
1 | Trx-His(6)-Δlinker-hSLAP2 (human SLAP2 29-261) (other, also called Trx-His-SLAP2; SLAP2 WT; not shown: N-terminal thioredoxin (Trx)-His(6)-TEV-site tag and linker of the modified pET32a (Δlinker version)) EAERSKATAVALGSFPAGGPAELSLRLGEPLTIVSEDGDWWTVLSEVSGREYNIPSVHVAKVSHGWLYEGLSREKAEELLLLPGNPGGAFLIRESQTRRGSYSLSVRLSRPASWDRIRHYRIHCLDNGWLYISPRLTFPSLQALVDHYSELADDICCLLKEPCVLQRAGPLPGKDIPLPVTVQRTPLNWKELDSSLLFSEAATGEESLLSEGLRESLSFYISLNDEAVSLDDA | Neither addition of SLAP2 nor pSLAP2 to active pCBL appeared to further enhance or diminish ubiquitination activity | increased | 
2 | pSLAP2: tyrosine phosphorylated SLAP2 expressed in TKB1 cells (protein, UniProt Q9H6Q3 2-261, looked up, tyrosine phosphorylated, tyrosine phosphorylated SLAP2 expressed in TKB1 cells) Src-like-adapter 2: GSLPSRRKSLPSPSLSSSVQGQGPVTMEAERSKATAVALGSFPAGGPAELSLRLGEPLTIVSEDGDWWTVLSEVSGREYNIPSVHVAKVSHGWLYEGLSREKAEELLLLPGNPGGAFLIRESQTRRGSYSLSVRLSRPASWDRIRHYRIHCLDNGWLYISPRLTFPSLQALVDHYSELADDICCLLKEPCVLQRAGPLPGKDIPLPVTVQRTPLNWKELDSSLLFSEAATGEESLLSEGLRESLSFYISLNDEAVSLDDA | Neither addition of SLAP2 nor pSLAP2 to active pCBL appeared to further enhance or diminish ubiquitination activity | increased; also recorded: stimulated CBL ligase activity to a greater extent than SLAP2 | stimulated CBL G306E ubiquitination activity
